{
  "source": "paper PMC2141715",
  "experiment_in_all_cases": "co-IP",
  "key": {"[1]": {"target": "calnexin (canine pancreas microsomes) (dog (endogenous in canine pancreas microsomes)) (UniProt P24643)", "sequence (P24643 21-593)": "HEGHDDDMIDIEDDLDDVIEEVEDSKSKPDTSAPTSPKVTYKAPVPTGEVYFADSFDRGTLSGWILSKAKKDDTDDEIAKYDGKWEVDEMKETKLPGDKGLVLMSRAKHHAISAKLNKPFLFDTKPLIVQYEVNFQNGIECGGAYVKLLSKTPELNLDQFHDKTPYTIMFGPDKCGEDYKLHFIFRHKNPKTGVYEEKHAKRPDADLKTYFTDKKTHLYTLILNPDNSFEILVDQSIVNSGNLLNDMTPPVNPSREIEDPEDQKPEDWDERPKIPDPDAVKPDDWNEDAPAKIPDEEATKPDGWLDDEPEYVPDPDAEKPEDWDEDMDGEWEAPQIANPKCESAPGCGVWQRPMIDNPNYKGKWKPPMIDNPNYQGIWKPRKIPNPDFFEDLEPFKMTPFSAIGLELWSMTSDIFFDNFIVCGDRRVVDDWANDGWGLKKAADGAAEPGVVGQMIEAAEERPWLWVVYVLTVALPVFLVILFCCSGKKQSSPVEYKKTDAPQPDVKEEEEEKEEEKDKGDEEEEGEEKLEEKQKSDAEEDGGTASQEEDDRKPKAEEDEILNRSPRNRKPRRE"}, "[2]": {"target": "calreticulin (canine pancreas microsomes) (dog (endogenous in canine pancreas microsomes)) (UniProt P28490)"}, "[3]": {"target": "calnexin (canine pancreas microsomes) (dog (endogenous in canine pancreas microsomes)) (UniProt P24643)", "remark": "listed apart in the source"}, "[4]": {"target": "calreticulin (canine pancreas microsomes) (dog (endogenous in canine pancreas microsomes)) (UniProt P28490)", "remark": "listed apart in the source"}},
  "note": "Where two headings read alike, the source gives them in different places.",
  "data": [
    {"substance": "anchor-free, truncated, soluble form of HA (domain or fragment)", "values": [
      {"measurement": "percent of HA coprecipitated", "setting": "[1]", "result": 54, "unit": "%"},
      {"measurement": "percent of HA coprecipitated", "setting": "[2]", "result": 50, "unit": "%"}
    ]},
    {"substance": "influenza virus hemagglutinin (HA), wild type, X31 (natural protein)", "values": [
      {"measurement": "binding ratio of the IT2 form (IT1 = 1.0, normalised to anti-HA precipitations)", "setting": "[3]", "result": 0.65},
      {"measurement": "binding ratio of the NT form (IT1 = 1.0, normalised to anti-HA precipitations)", "setting": "[3]", "result": 0.63},
      {"measurement": "percent of HA in calnexin–HA complexes without calreticulin", "setting": "[3]", "result": 8, "unit": "%"},
      {"measurement": "percent of HA in ternary complexes with m2 and m3", "setting": "[3]", "result": 40, "unit": "%"},
      {"measurement": "binding ratio of the IT2 form (IT1 = 1.0, normalised to anti-HA precipitations)", "setting": "[4]", "result": 0.57},
      {"measurement": "binding ratio of the NT form (IT1 = 1.0, normalised to anti-HA precipitations)", "setting": "[4]", "result": 0.16},
      {"measurement": "percent of HA coprecipitated", "setting": "[4]", "result": 45, "unit": "%"},
      {"measurement": "percent of HA in calreticulin–HA complexes without calnexin", "setting": "[4]", "result": 10, "unit": "%"},
      {"measurement": "percent of HA in ternary complexes with m2 and m3", "setting": "[4]", "result": 40, "unit": "%"},
      {"measurement": "percent of HA coprecipitated", "setting": "[1]", "result": 82, "unit": "%"},
      {"measurement": "percent of HA coprecipitated", "setting": "[2]", "result": 50, "unit": "%"}
    ]}
  ]
}
